This note sets out measurements from patent US20250027060A1 (VIB VZW, published 2025).

Test [1] concerns the target T1, LTKTG-EGFL (human LTK amino acids 63-420) (human, UniProt P29376 63-420).
T1 construct: Fc-His6 tag removed by caspase 3; also called LTK (in BLI, SEC-MALLS and ITC)
T1 sequence: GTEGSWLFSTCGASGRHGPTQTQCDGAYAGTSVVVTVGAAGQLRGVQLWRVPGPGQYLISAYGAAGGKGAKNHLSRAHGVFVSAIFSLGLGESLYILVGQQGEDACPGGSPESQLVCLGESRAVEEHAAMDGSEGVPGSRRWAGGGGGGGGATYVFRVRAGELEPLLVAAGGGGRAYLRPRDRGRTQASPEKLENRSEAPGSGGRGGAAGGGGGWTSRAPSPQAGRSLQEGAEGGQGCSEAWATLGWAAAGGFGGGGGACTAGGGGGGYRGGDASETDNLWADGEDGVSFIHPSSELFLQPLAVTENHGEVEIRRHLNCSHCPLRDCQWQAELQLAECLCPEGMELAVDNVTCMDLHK
Kind of test: BLI, biotinylated ALKAL2 H100A on streptavidin biosensors, LTKTG-EGFL in solution, dilution series 6.4 µM-400 nM, biphasic fit, component 1. The text has this:
(§1) FIGS. 10A and 10B Representative response curves as measure by biolayer-interferometry (BLI) for the interaction of WT ALKAL1 and ALKAL1 mutants (containing charge-reversal mutations of residues involved in site 1) (FIG. 10A) and WT ALKAL2 and ALKAL2 mutants (FIG. 10B) with ALK_TG-EGFL and LTK_TG-EGFL. For WT ALKALs LTK curves were fitted with a 2:1 binding model (red) while for ALK a 1:1 model was used. Start and end concentrations of the 3-fold dilution series used for the WT measurements is shown as an inset while for all mutants a […] dilution series from 6.4 μM-400 nM was used.
(§2) All measurements of binding kinetics and dissociation constants were performed using an Octet Red 96 (Forté Bio) in assay buffer (20 mM HEPES pH 7.4, 150 mM NaCl, 0.02% (w/v) BSA, 0.002% (v/v) Tween 20) at 298K. ALKALs were immobilized to a level of 0.5 nm on streptavidin-coated biosensors (Forté Bio). To verify that no a specific binding was present during the assay, non-functionalized biosensors were used as a control by measuring in parallel all ligand concentrations as well as running buffer. For all mutants a two-fold dilution series from 6.4 μM-400 nM was employed. Data analysis was performed using the Data Analysis software 9.0.0.14 (Forté Bio) and binding curves were exported to Prism8 (Graphpad Software) for plotting of curves.
Background: In BLI a coated tip is dipped into the sample, and binding shifts an interference pattern.

The target in test [2] is T1, LTKTG-EGFL (human LTK amino acids …). Briefly: BLI, biotinylated ALKAL2 H100A on streptavidin biosensors, LTKTG-EGFL in solution, dilution series 6.4 µM-400 nM, biphasic fit, component 2; the sheet prints x0^-1, taken as x10^-1.
Excerpt: as §1, §2

Test [3] has the same target. Kind of test: BLI, biotinylated ALKAL2 H100A on streptavidin biosensors, LTKTG-EGFL in solution, dilution series 6.4 µM-400 nM, biphasic fit, component 2.
Excerpt: as §1, §2

The target of test [4] is T2, ALKTG-EGFL (human ALK amino acids 648-1025) (human, UniProt Q9UM73 648-1025, N-linked glycans; EndoH-trimmed (deglycosylated) for crystals and SEC-MALLS).
T2 construct: The C-terminal Fc-His6 tag was removed by caspase 3; also called ALK (in BLI, SEC-MALLS and ITC)
Kind of test: BLI, biotinylated ALKAL2 R123E on streptavidin biosensors, ALKTG-EGFL in solution, dilution series 6.4 µM-400 nM.
Excerpt: as §1, §2

Test [5] concerns the target T1, LTKTG-EGFL (human LTK amino acids …). Briefly: BLI, biotinylated ALKAL2 R123E on streptavidin biosensors, LTKTG-EGFL in solution, dilution series 6.4 µM-400 nM.
Excerpt: as §1, §2

T2 sequence (Q9UM73 648-1025): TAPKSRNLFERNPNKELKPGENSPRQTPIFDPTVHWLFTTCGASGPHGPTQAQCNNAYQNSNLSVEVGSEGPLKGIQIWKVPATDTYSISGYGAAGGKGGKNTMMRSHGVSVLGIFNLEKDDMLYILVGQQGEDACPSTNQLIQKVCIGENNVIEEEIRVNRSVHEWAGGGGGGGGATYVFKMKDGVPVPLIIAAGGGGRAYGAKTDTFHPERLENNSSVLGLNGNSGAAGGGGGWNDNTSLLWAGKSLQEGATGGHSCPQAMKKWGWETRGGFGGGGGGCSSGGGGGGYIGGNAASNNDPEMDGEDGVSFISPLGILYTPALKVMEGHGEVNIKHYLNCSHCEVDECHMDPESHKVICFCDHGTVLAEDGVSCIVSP

B1: ALKAL2^H100A (residues 78-152) (ligand, human, UniProt Q6UX46 78-152, looked up)
chain: PSPEQRVEIVPRDLRMKDKFLKALTGPLYFSPKCSKHFHRLYHNTRDCTIPAYYKRCARLLTRLAVSPVCMEDKQ
notes: range 78-152; Avi-tagged and biotinylated in BLI; also called ALKAL2 site 2 mutant H100A
As usually defined, the Kd is the constant that tells how readily two partners part at equilibrium. As a reminder, the koff is the rate constant with which the complex falls apart. Read a low koff as slow dissociation. By kon is commonly meant the rate constant with which the complex forms. Lower therefore signals slow association. Take B1: the results for the Kd in test [1] and in test [3] were 280 nM and 3000 nM, respectively. Besides, the results for the koff in test [1] and in test [2] were 0.00082 s⁻¹ and 0.16 s⁻¹, respectively. Moreover, the kon is 2900 M⁻¹ s⁻¹ in test [1] and 53000 M⁻¹ s⁻¹ in test [3].

B2: ALKAL2^R123E (residues 78-152) (ligand, human, UniProt Q6UX46 78-152, looked up)
chain: PSPEQRVEIVPRDLRMKDKFLKHLTGPLYFSPKCSKHFHRLYHNTEDCTIPAYYKRCARLLTRLAVSPVCMEDKQ
notes: range 78-152; also called ALKAL2 site 1 mutant R123E
As to B2, the Kd in test [4] was 3500 nM; in test [5], 2300 nM.
